Data reported in patent US20140323699A1 (CALIFORNIA INSTITUTE OF TECHNOLOGY, published 2014).

Target: T1, glycosylated synapsin I from olfactory bulb lysate (rat, UniProt P09951 1-704, limits assumed, Fucα(1-2)Gal glycosylated (sites not given))
T1 construct: Endogenous protein in tissue lysate, detected by Western blot with mouse anti-synapsin I ascites
Assay: lectin affinity chromatography on UEAI-agarose, elution with 200 mM L-fucose, Western blot for synapsin I

binding result: no binding (tested: 500 µg lysate)
B1: UEAI lectin conjugated to agarose (Vector Laboratories) (other, UniProt P22972 1-243, looked up)
chain: SDDLSFKFKNFSQNGKDLSFQGDASVIETGVLQLNKVGNNLPDETGGIARYIAPIHIWNCNTGEVASFITSFSFFMETSANPKAATDGLTFFLAPPDSPLRRAGGYFGLFEDTKDNDSSYQTVAVEFDTIGSPVNFDDPGFPHIGIDVNRVKSINAERWNKRYGLNNVANVEIIYEASSKTLTASLTYPSDQTSISVTSIVDLKEILPEWVSVGFSGGTYIGRQATHEVLNWYFTSNLINTNS
modifications: conjugated to agarose
